{"source": "patent US20070087413A1", "about": "(GENHUNTER, published 2007)", "binders": {"B1": {"name": "trimeric soluble human TNF-RII-T2 fusion protein (human soluble TNF-RII fused to the T2 C-propeptide of human α(I) collagen) (receptor)", "chain": "LPAQVAFTPYAPEPGSTCRLREYYDQTAQMCCSKCSPGQHAKVFCTKTSDTVCDSCEDSTYTQLWNWVPECLSCGSRCSSDQVETQACTREQNRICTCRPGWYCALSKQEGCRLCAPLRKCRPGFGVARPGTETSDVVCKPCAPGTFSNTTSSTDICRPHQICNVVAIPGNASMDAVCTSTSPTRSMAPGAVHLPQPVSTRSQHTQPTPEPSTAPSTSFLLPMGPSPPAEGSTGSDANVVRDRDLEVDTTLKSLSQQIENIRSPEGSRKNPARTCRDLKMCHSDWKSGEYWIDPNQGCNLDAIKVFCNMETGETCVYPTQPSVAQKNWYISKNPKDKRHVWFGESMTDGFQFEYGGQGSDPADVAIQLTFLRLMSTEASQNITYHCKNSVAYMDQQTGNLKKALLLKGSNEIEIRAEGNSRFTYSVTVDGCTSHTGAWGKTVIEYKTTKSSRLPIIDVAPLDVGAPDQEFGFDVGPVCFL"}}, "biological_target": "human TNF-α (R & D Systems) (human, UniProt P01375 77-233)", "sequence (P01375 77-233 limits assumed)": "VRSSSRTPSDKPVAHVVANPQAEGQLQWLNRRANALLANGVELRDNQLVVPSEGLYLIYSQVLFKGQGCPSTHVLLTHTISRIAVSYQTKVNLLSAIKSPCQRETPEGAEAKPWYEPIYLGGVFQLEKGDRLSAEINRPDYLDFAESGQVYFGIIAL", "assay": "cell-based or functional assay", "note": "Values joined by “and” are separate entries in the source; they are usually repeats but may differ in a detail not shown here. Identical values can stand only once."}
{"binder": "B1", "values": [{"measurement": "apparent Ki-50 (50% inhibition) of TNF-α mediated apoptosis of WEHI-13VAR cells, human TNF-α at 0.5 ng/mL", "result": "~2 ng/mL and ~8e-12 M"}]}
